The values that follow come from patent US20240239864A1 (US Dept. of Health and Human Services, published 2024).

The assay deals with T1, HLA-A*02:01 CD22 p228-236 tetramer (human).
T1 construct: Bought monomer, loaded by UV peptide exchange and made into a tetramer; The streptavidin and label are not described; also called p-MHC tetramer
Put plainly: p-MHC tetramer staining of T cells of co-culture well D146W8, flow cytometry. (A flow cytometer gives signals particle by particle.)

B1: TCR clone D146W8 (native clone on the T cells of co-culture well D146W8) (TCR, V domains shown)
V domain 1: QKEVEQNSGPLSVPEGAIASLNCTYSDRGSQSFFWYRQYSGKSPELIMFIYSNGDKEDGRFTAQLNKASQYVSLLIRDSQPSDSATYLCAVKGAGGFKTIFGAGTRLFVKA
V domain 2: DTGVSQNPRHKITKRGQNVTFRCDPISEHNRLYWYRQTLGQGPEFLTYFQNEAQLEKSRLLSDRFSAERPKGSFSTLEIQRTEQGDSAMYLCASSPGNTEAFFGQGTRLTVV
notes: also called D146W8 TCR; not shown: constant region of the native human clone
Regarding B1, the binding result is recorded as “binds”.
